{"source": "paper PMC10412585", "about": "(2023)", "key": {"[1]": {"biological_target": "AKAP6_(388-396) HLA-E single chain trimer (soluble, biotinylated) (human, biotin (AviTag))", "experiment": "SPR"}, "[2]": {"biological_target": "CREB3L1_(419-427) HLA-E single chain trimer (soluble, biotinylated) (human, biotin (AviTag))", "experiment": "SPR"}, "[3]": {"biological_target": "PISD_(55-63) HLA-E single chain trimer (soluble, biotinylated) (human, biotin (AviTag))", "experiment": "SPR"}, "[4]": {"biological_target": "… peptide HLA-E single chain trimer (soluble, biotinylated) (human, biotin (AviTag))", "experiment": "SPR"}, "[5]": {"biological_target": "BFAR_(263-271) HLA-E single chain trimer (soluble, biotinylated) (human, biotin (AviTag))", "experiment": "SPR"}, "[6]": {"biological_target": "GTF3C5_(293-301) HLA-E single chain trimer (soluble, biotinylated) (human, biotin (AviTag))", "experiment": "SPR; weak binder not approaching saturation, inexact"}}, "data": [{"binder": "CD94/NKG2A single-chain fusion protein (human NKG2A ectodomain - GGSGGS - human CD94 ectodomain), produced in Hi5 cells for SPR (receptor) not shown", "values": [{"measurement": "Kd", "setting": "[1]", "result": "~4.1", "unit": "µM"}, {"measurement": "Kd", "setting": "[2]", "result": "~3.3", "unit": "µM"}, {"measurement": "Kd", "setting": "[3]", "result": "~12.1", "unit": "µM"}, {"measurement": "Kd", "setting": "[4]", "result": "~8.9", "unit": "µM"}, {"measurement": "Kd", "setting": "[5]", "result": "~0.8", "unit": "µM"}, {"measurement": "Kd", "setting": "[6]", "result": "~28.1", "unit": "µM"}]}, {"binder": "CD94/NKG2C single-chain fusion protein (human NKG2C ectodomain - GGSGGS - human CD94 ectodomain), produced in Hi5 cells for SPR (receptor) not shown", "values": [{"measurement": "Kd", "setting": "[1]", "result": "~15.6", "unit": "µM"}, {"measurement": "Kd", "setting": "[2]", "result": "~9.8", "unit": "µM"}, {"measurement": "Kd", "setting": "[3]", "result": "~16", "unit": "µM"}, {"measurement": "Kd", "setting": "[4]", "result": "~23.8", "unit": "µM"}, {"measurement": "Kd", "setting": "[5]", "result": "~1.8", "unit": "µM"}, {"measurement": "Kd", "setting": "[6]", "result": "~92.4", "unit": "µM"}]}]}
